Experimental data: patent publication CN116178545A (GUANGDONG FEIPENG PHARMACEUTICAL CO LTD, dated 2023)

T1: 重组人ICOSLG蛋白 (human, UniProt O75144 19-258)
T1 construct: The words 携带hFc标签的 stand before the first protein of the list; also called Acrobiosystem Cat.B72-H5254
T1 sequence (looked up): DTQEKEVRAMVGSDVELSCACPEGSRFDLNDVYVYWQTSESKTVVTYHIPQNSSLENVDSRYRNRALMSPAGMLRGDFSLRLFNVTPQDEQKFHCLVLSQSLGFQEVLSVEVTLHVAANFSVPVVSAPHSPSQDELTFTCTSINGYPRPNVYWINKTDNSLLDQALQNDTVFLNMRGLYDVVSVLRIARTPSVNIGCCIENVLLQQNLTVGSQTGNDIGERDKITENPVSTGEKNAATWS

T2: 重组人CD276蛋白 (human, UniProt Q5ZPR3-2 29-245)
T2 construct: The words 携带hFc标签的 stand before the first protein of the list; also called B7-H3; Acrobiosystem Cat.B73-H5253
T2 sequence (looked up): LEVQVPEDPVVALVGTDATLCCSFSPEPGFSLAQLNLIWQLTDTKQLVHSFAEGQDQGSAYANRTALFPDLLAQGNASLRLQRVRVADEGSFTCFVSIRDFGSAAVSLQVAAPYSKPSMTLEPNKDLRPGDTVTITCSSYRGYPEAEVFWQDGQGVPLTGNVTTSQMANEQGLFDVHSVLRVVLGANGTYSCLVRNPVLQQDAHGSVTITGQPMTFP

T3: 重组人ICOS蛋白 (human, UniProt Q9Y6W8 21-140)
T3 construct: The words 携带hFc标签的 stand before the first protein of the list; also called Acrobiosystem Cat.ICS-H5250
T3 sequence (looked up): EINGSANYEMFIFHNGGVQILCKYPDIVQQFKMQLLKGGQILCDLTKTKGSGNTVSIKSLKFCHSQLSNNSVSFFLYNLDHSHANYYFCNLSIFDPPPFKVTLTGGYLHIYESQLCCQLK

T4: 重组人PD-L2蛋白 (human, UniProt Q9BQ51 20-219)
T4 construct: The words 携带hFc标签的 stand before the first protein of the list; also called Acrobiosystem Cat.PD2-H5251
T4 sequence (looked up): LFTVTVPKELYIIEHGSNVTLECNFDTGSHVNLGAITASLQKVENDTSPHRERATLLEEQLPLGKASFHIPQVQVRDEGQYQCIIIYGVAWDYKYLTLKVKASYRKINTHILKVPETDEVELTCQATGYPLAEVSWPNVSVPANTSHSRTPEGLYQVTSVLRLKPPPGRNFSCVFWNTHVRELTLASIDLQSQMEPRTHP

T5: 重组人CD86蛋白 (human, UniProt P42081 26-247)
T5 construct: The words 携带hFc标签的 stand before the first protein of the list; also called Acrobiosystem Cat.CD6-H5257
T5 sequence (looked up): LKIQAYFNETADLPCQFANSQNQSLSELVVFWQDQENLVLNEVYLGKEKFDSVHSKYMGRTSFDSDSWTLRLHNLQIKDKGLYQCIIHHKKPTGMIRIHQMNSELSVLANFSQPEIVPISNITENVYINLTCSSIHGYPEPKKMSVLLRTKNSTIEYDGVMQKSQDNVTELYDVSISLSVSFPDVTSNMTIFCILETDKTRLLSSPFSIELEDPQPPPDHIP


Key:
hPD-L1-his = target: T6, hPD-L1-his (human, UniProt Q9NZQ7 19-238); assay: BLI (ForteBIO), hPD-L1-his on anti-Penta-HIS sensor
T6 construct: extracellular domain; also called 携带his标签的人PD-L1胞外区重组蛋白; not shown: his tag
T6 sequence (Q9NZQ7 19-238): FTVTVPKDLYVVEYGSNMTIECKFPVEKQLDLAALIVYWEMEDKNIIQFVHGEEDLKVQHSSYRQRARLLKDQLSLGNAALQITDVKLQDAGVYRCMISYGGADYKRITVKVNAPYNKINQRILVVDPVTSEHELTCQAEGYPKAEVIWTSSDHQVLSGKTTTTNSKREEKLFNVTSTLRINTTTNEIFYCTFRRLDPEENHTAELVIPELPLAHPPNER

小鼠PD-L1 (on CHO cells) = target: T7, 小鼠PD-L1 (on CHO cells) (mouse, UniProt Q9EP73 19-290); assay: flow cytometry on CHO-mPD-L1 cells
T7 construct: whole, on cells; also called CHO-mPD-L1稳定细胞株; 稳定表达全长小鼠PD-L1的CHO
T7 sequence (Q9EP73 19-290): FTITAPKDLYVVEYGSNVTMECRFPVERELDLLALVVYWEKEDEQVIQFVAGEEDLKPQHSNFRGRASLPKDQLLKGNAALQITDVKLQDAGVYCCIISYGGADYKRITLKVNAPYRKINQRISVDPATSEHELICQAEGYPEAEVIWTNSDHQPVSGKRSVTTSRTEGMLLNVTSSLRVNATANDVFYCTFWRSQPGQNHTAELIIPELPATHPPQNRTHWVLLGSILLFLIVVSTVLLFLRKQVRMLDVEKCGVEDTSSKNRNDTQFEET

重组人CTLA-4蛋白 = target: T8, 重组人CTLA-4蛋白 (human, UniProt P16410 37-162); assay: ELISA, protein coated at 1μg/ml
T8 construct: The words 携带hFc标签的 stand before the first protein of the list; also called Acrobiosystem Cat.CT4-H5255
T8 sequence (P16410 37-162): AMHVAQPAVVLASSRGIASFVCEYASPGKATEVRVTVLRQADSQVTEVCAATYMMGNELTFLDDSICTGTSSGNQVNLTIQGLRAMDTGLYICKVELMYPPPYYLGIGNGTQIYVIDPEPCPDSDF

重组人ICOSLG蛋白 = target: T1, 重组人ICOSLG蛋白; assay: ELISA, protein coated at 1μg/ml
重组人CD276蛋白 = target: T2, 重组人CD276蛋白; assay: ELISA, protein coated at 1μg/ml
重组人CD28蛋白 = target: T9, 重组人CD28蛋白 (human, UniProt P10747 19-152); assay: ELISA, protein coated at 1μg/ml
T9 construct: The words 携带hFc标签的 stand before the first protein of the list; also called Acrobiosystem Cat.CD8-H525a

重组人ICOS蛋白 = target: T3, 重组人ICOS蛋白; assay: ELISA, protein coated at 1μg/ml
重组人PD-L2蛋白 = target: T4, 重组人PD-L2蛋白; assay: ELISA, protein coated at 1μg/ml
重组人PD-1蛋白(自产) = target: T10, 重组人PD-1蛋白(自产) (human, UniProt Q15116 25-167); assay: ELISA, protein coated at 1μg/ml
T10 construct: The words 携带hFc标签的 stand before the first protein of the list
T10 sequence (Q15116 25-167): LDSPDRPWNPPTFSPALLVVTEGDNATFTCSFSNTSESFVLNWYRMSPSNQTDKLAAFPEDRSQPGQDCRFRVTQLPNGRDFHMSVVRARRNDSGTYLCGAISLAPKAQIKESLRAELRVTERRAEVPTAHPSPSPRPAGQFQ

重组人CD86蛋白 = target: T5, 重组人CD86蛋白; assay: ELISA, protein coated at 1μg/ml
人PD-L1 (on cells) = target: T11, 人PD-L1 (on cells) (human, UniProt Q9NZQ7 19-290); assay: flow cytometry on IFNγ-stimulated A375 cells
T11 construct: whole, on cells; One molecule for human PD-L1 on CHO-hPD-L1, on IFNγ-stimulated A375 and on CHO-hPD-L1-OKT3 cells; the cell is named under assay; also called CHO-hPD-L1稳定细胞株; 稳定表达人PD-L1的CHO
T11 sequence (Q9NZQ7 19-290): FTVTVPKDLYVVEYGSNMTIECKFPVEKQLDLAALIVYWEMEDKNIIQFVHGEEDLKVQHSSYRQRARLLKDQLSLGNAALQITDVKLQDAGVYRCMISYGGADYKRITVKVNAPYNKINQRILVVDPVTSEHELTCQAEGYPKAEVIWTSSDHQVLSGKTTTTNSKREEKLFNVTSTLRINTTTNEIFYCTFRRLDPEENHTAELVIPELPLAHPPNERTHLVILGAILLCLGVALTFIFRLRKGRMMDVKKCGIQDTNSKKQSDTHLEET

| Kd (hPD-L1-his) [nM] | binding result (小鼠PD-L1 (on CHO cells)) | binding result (重组人CTLA-4蛋白) | binding result (重组人ICOSLG蛋白) | binding result (重组人CD276蛋白) | binding result (重组人CD28蛋白) | binding result (重组人ICOS蛋白) | binding result (重组人PD-L2蛋白) | binding result (重组人PD-1蛋白(自产)) | binding result (重组人CD86蛋白) | EC50 (人PD-L1 (on cells)) [nM] | Binder |
| --- | --- | --- | --- | --- | --- | --- | --- | --- | --- | --- | --- |
| 0.109 | no binding (tested: 20μg/ml) | no binding (tested: 10μg/ml) | no binding (tested: 10μg/ml) | no binding (tested: 10μg/ml) | no binding (tested: 10μg/ml) | no binding (tested: 10μg/ml) | no binding (tested: 10μg/ml) | no binding (tested: 10μg/ml) | no binding (tested: 10μg/ml) | ~0.2 | 176L5H2 (antibody, V domains shown, Whole humanized mAb expressed in 293 cells; detected with anti-human IgG; also called 抗人PD-L1人源化抗体176L5H2) VH: QVQLQESGPGLVKPSETLSLTCAVYGDSITSGYWNWIRKPPGKKLEYIGYISYTGSTYQNPSLKSRITMSRDTSKNQYYLKLSSVTAADTAVYYCARSRAWIRTYFDYWGQGTLVTVSS VL: EIVLTQSPSSLSASVGDRVTITCSVSSSISSSNLHWYQQKPGKAPKPWIYGTSNLASGVPSRFSGSGSGTDYTLTISSLQPEDFATYYCQQWSSYPLTFGQGTKLEIKR |
| 0.08 | no binding (tested: 20μg/ml) | no binding (tested: 10μg/ml) | no binding (tested: 10μg/ml) | no binding (tested: 10μg/ml) | no binding (tested: 10μg/ml) | no binding (tested: 10μg/ml) | no binding (tested: 10μg/ml) | no binding (tested: 10μg/ml) | no binding (tested: 10μg/ml) | ~0.2 | 176L4H3 (antibody, V domains shown, Whole humanized mAb expressed in 293 cells; detected with anti-human IgG; also called 抗人PD-L1人源化抗体176L4H3) VH: QVQLQESGPGLVKPSETLSLTCAVYGDSITSGYWNWIRKPPGKKLEYIGYISYTGSTYQNPSLKSRITFSRDTSKNQYYLKLSSVTAADTAVYYCARSRAWIRTYFDYWGQGTLVTVSS VL: DIQMTQSPSSLSASVGDRVTITCSVSSSISSSNLHWYQQKPGKAPKPWIYGTSNLASGVPSRFSGSGSGTDYTLTISSLQPEDFATYYCQQWSSYPLTFGQGTKLEIKR |

Second part, the binder before the results:

| Binder | Kd (hPD-L1-his) [nM] | binding result (小鼠PD-L1 (on CHO cells)) | binding result (重组人CTLA-4蛋白) | binding result (重组人ICOSLG蛋白) | binding result (重组人CD276蛋白) | binding result (重组人CD28蛋白) | binding result (重组人ICOS蛋白) | binding result (重组人PD-L2蛋白) | binding result (重组人PD-1蛋白(自产)) | binding result (重组人CD86蛋白) | EC50 (人PD-L1 (on cells)) [nM] |
| --- | --- | --- | --- | --- | --- | --- | --- | --- | --- | --- | --- |
| F016-870-hIgG1 (antibody, V domains shown) VH: EVQLQESGPSLVKPSQTLSLTCSVTGDSITSGYWNWIRKFPGNKLEYMGYISYTGSTYQNPSLKSRISFTRDTSKNQYYLQLSSVTTEDTATYYCARSRAWIRTYFDYWGQGTTLTVSS VL: EIVLTQSPALMAASPGEKVTITCSVSSSISSSNLHWYQQKSETSPKPWIYGTSNLASGVPVRFSGSGSGTSYSLTISSMEAEDAATYYCQQWSSYPLTFGAGTKLELKR | < 0.001 | – | – | – | – | – | – | – | – | – | – |
| 176L6H5 (antibody, V domains shown, Whole humanized mAb expressed in 293 cells; detected with anti-human IgG; also called 抗人PD-L1人源化抗体176L6H5) VH: EVQLQESGPGLVKPSETLSLTCAVYGDSITSGYWNWIRKPPGKGLEYMGYISYTGSTYQNPSLKSRITFSRDTSKNQYYLKLSSVTAADTATYYCARSRAWIRTYFDYWGQGTLVTVSS VL: EIVLTQSPDFQSVTPKEKVTITCSVSSSISSSNLHWYQQKPDQSPKLLIYGTSNLASGVPSRFSGSGSGTDFTLTINSLEAEDAATYYCQQWSSYPLTFGQGTKLEIKR | 0.0302 | no binding (tested: 20μg/ml) | no binding (tested: 10μg/ml) | no binding (tested: 10μg/ml) | no binding (tested: 10μg/ml) | no binding (tested: 10μg/ml) | no binding (tested: 10μg/ml) | no binding (tested: 10μg/ml) | no binding (tested: 10μg/ml) | no binding (tested: 10μg/ml) | ~0.2 |
| 176L4H2 (antibody, V domains shown, Whole humanized mAb expressed in 293 cells; detected with anti-human IgG; also called 抗人PD-L1人源化抗体176L4H2) VH: QVQLQESGPGLVKPSETLSLTCAVYGDSITSGYWNWIRKPPGKKLEYIGYISYTGSTYQNPSLKSRITMSRDTSKNQYYLKLSSVTAADTAVYYCARSRAWIRTYFDYWGQGTLVTVSS VL: DIQMTQSPSSLSASVGDRVTITCSVSSSISSSNLHWYQQKPGKAPKPWIYGTSNLASGVPSRFSGSGSGTDYTLTISSLQPEDFATYYCQQWSSYPLTFGQGTKLEIKR | 0.0848 | no binding (tested: 20μg/ml) | no binding (tested: 10μg/ml) | no binding (tested: 10μg/ml) | no binding (tested: 10μg/ml) | no binding (tested: 10μg/ml) | no binding (tested: 10μg/ml) | no binding (tested: 10μg/ml) | no binding (tested: 10μg/ml) | no binding (tested: 10μg/ml) | ~0.2 |
| 176L4H1 (antibody, V domains shown, Whole humanized mAb expressed in 293 cells; detected with anti-human IgG; also called 抗人PD-L1人源化抗体176L4H1) VH: QVQLQESGPGLVKPSETLSLTCAVYGDSITSGYWNWIRKPPGKGLEYIGYISYTGSTYQNPSLKSRITMSRDTSKNQYYLKLSSVTAADTAVYYCARSRAWIRTYFDYWGQGTLVTVSS VL: DIQMTQSPSSLSASVGDRVTITCSVSSSISSSNLHWYQQKPGKAPKPWIYGTSNLASGVPSRFSGSGSGTDYTLTISSLQPEDFATYYCQQWSSYPLTFGQGTKLEIKR | 0.0084 | no binding (tested: 20μg/ml) | no binding (tested: 10μg/ml) | no binding (tested: 10μg/ml) | no binding (tested: 10μg/ml) | no binding (tested: 10μg/ml) | no binding (tested: 10μg/ml) | no binding (tested: 10μg/ml) | no binding (tested: 10μg/ml) | no binding (tested: 10μg/ml) | ~0.2 |
| 176L4H4 (antibody, V domains shown, Whole humanized mAb expressed in 293 cells; detected with anti-human IgG; also called 抗人PD-L1人源化抗体176L4H4) VH: QVQLQESGPGLVKPSETLSLTCSVYGDSITSGYWNWIRKPPGKKLEYMGYISYTGSTYQNPSLKSRITFSRDTSKNQYYLKLSSVTAADTAVYYCARSRAWIRTYFDYWGQGTLVTVSS VL: DIQMTQSPSSLSASVGDRVTITCSVSSSISSSNLHWYQQKPGKAPKPWIYGTSNLASGVPSRFSGSGSGTDYTLTISSLQPEDFATYYCQQWSSYPLTFGQGTKLEIKR | 0.0881 | no binding (tested: 20μg/ml) | no binding (tested: 10μg/ml) | no binding (tested: 10μg/ml) | no binding (tested: 10μg/ml) | no binding (tested: 10μg/ml) | no binding (tested: 10μg/ml) | no binding (tested: 10μg/ml) | no binding (tested: 10μg/ml) | no binding (tested: 10μg/ml) | ~0.2 |
